# According to patent US20150376265A1 (Genentech, published 2015):
# T1: Complex I with gH P171S, on virions of HB1 - mutant virus 3 (HCMV, UniProt P12824 24-743; P16832 31-278; P16837 28-171; F5HCP3 26-214; F5HET4 19-129)
# T1 chain 1: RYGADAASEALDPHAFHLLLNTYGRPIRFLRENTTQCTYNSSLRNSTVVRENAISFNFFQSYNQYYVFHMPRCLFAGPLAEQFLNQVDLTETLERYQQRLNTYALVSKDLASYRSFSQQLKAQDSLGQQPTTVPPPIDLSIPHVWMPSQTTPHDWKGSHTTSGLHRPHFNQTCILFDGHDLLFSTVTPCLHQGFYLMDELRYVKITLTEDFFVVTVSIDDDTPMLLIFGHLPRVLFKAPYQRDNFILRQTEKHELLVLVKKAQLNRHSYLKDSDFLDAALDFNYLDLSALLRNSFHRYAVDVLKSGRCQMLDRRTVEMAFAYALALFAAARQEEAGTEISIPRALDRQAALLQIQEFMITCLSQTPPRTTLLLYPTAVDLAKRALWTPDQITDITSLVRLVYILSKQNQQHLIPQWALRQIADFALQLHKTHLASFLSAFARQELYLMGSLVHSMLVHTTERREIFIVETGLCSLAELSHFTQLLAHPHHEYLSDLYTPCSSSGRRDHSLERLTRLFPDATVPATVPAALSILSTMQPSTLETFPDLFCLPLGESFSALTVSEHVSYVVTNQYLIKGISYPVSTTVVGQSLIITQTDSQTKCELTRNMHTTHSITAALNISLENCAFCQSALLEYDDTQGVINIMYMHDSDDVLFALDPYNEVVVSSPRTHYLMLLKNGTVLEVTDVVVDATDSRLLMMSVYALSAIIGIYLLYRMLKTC
# T1 chain 2: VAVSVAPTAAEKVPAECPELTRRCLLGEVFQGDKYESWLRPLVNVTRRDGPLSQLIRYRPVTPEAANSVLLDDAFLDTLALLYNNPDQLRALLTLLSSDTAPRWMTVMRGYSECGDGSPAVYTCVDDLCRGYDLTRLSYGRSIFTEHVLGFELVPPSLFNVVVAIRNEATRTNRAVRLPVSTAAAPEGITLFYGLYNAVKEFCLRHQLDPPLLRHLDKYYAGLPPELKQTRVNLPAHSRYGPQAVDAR
# T1 chain 3: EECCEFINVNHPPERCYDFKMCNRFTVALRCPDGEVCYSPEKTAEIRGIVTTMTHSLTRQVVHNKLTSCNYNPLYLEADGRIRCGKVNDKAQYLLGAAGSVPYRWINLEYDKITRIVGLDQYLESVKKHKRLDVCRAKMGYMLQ
# T1 chain 4: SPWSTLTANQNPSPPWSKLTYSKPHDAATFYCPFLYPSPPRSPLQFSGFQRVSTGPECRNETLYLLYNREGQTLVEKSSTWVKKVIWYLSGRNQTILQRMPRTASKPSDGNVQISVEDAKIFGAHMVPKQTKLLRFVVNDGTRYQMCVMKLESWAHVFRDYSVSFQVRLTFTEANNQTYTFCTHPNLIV
# T1 chain 5: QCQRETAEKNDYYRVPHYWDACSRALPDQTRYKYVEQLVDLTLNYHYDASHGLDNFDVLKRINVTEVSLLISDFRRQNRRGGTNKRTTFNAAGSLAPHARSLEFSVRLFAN
# B1: hu8G8 (lambda4 8G8 graft and hu8G8.VH1) (antibody, V domains shown)
# VH: EVQLVQSGAEVKKPGASVKVSCKASGYTFTNYGMNWVRQAPGQGLEWIGWINTYTGEPTYADDFKGRVTITRDTSTSTAYLELSSLRSEDTAVYYCARSWYYVSNYWYFDVWGQGTLVTVSS
# VL: SVLTQSPSASASLGASVKLTCTLSSQHSTYTIEWYQQQPGKGPRYLMKLKKDGSHSTGDGIPDRFSGSSSGADRYLTISNLQSEDEADYYCGVGDTIKEQFVYVFGGGTKLTVLG
# notes: also called hu8G8 with VH1; Humanized 8G8 with VH1
# Tests used:
# [1] = target: T1, Complex I with gH P171S, on virions of …; assay: cell-based or functional assay
# [2] = target: T2, gH/gL, full-length, on the surface of transfected HEK-293T cells (HCMV, UniProt P12824 24-743; P16832 31-278); assay: FACS on transfected HEK-293T cells
# T2 construct: also called cells expressing gH/gL alone; cell-surface expressed gH/gL
binder,measurement,setting,value
B1,"hu8G8 EC50, neutralisation of HB1 - mutant virus 3, Data Set 1",[1],1 ng/mL
same,"hu8G8 EC50, neutralisation of HB1 - mutant virus 3, Data Set 2",[1],0.1 ng/mL
same,binding result,[2],no binding (tested: saturating primary antibody)
